Measured values as given in patent US9371393B2, “Class I anti-CEA antibodies and uses thereof” (Immunomedics, Inc., priority 2009, dated 2016).

Columns and labels:
[1] = test system: SUM1315 breast cancer model; assay: hMN-15 pretreatment and CPT-11 in SUM1315 breast cancer model; type: in vivo; settings: single agent; dosages as in Example 5
Protocol: The effects of pre-treatment with naked hMN-15 CEA Mab given 3 days prior to CPT-11 treatment is examined in a SUM1315 breast cancer model (Kuperwasser et al., Cancer Res. 2005, 65:6130-38). CPT-11 alone, hMN-15 alone, and combination therapy of hMN-15+CPT-11 where the hMN-15 is administered 3 days prior to the CPT-11 are compared. Dosages are as indicated in Example 5. hMN-15 alone increases median survival time by 21% under these conditions. CPT 11 alone increases survival by 76%. By contrast, the combination therapy where hMN-15 is administered 3 days prior to CPT-11 produces a median survival time increase of an additional 58% above CPT-11 alone. […] The synergistic effect of hMN-15 antibody with CPT-11 therapy is surprising.

[2] = test system: RII and RI isoforms of PKA; settings: Gold 2006; Stokka et al. 2006; cited from earlier work
CEA = molecular target: T1, CEA (Homo sapiens, UniProt P06731); assay: Competitive CEA binding against HRP-labeled murine MN-15; settings: competition with HRP-labeled murine MN-15
T1 sequence (P06731 35-676): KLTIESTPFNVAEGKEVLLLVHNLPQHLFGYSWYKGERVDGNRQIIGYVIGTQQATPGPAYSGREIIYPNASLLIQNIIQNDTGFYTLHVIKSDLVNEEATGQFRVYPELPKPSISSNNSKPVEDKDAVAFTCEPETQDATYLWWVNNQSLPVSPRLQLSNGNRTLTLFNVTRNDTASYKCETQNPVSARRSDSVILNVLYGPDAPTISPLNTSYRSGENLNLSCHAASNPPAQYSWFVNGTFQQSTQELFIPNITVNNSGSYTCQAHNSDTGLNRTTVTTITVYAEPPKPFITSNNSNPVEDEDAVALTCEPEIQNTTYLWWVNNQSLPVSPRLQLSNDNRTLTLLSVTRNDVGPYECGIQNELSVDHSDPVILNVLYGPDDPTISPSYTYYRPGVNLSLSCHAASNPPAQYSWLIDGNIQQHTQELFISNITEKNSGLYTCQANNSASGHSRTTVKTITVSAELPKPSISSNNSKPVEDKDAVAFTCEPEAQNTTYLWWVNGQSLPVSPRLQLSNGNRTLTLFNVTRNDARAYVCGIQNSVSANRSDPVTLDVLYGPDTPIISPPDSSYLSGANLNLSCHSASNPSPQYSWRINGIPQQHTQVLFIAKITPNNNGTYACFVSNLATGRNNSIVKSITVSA
Text: To make a chimeric MN-15 antibody, the murine MN-15 variable region sequences were attached to human IgG1 constant region sequences, as described in Leung et al., Hybridoma 13:469 (1994). The sequences of the murine MN-15 VK (SEQ ID NO:9) and MN-15 VH (SEQ ID NO:10) used to construct the chimeric MN-15 (cMN-15) are shown in FIG. 2 and FIG. 3.

[3] = test system: TT human medullary thyroid cell line tumors; assay: hMN-15 and DTIC in TT medullary thyroid cancer xenografts; type: in vivo, nu/nu mice; settings: at 7 weeks, DTIC 75 μg/dose, hMN-15 100 μg/dose
Protocol: Tumors are propagated in female nu/nu mice (Taconic Farms, Germantown, N.Y.) at 6-8 weeks of age by s.c. injection of 2×10^8 washed TT cells, which is propagated in tissue culture. Antibodies are injected i.v., via the lateral tail vein, into the tumor-bearing animals. Tumor size is monitored by weekly measurements of the length, width, and depth of the tumor using a caliper. Tumor volume is calculated as the product of the three measurements.
To study whether naked hMN-15 can add to the efficacy of DTIC, TT bearing nude mice are given DTIC (75 μg/dose) in combination with a course of treatment of the unlabeled MAb. DTIC is administered for 3 consecutive days at 75 μg/dose as one course, beginning 2 days after s.c. injection of TT cells. hMN-15 MAb treatment is initiated 3 days prior to the first dose of DTIC, at 100 μg/dose/day for 5 days in the first two weeks, then twice weekly.

[4] = test system: liver metastases of sigmoid colon cancer; assay: Sigmoid colon cancer therapy with hMN-15 and GM-CSF, patient two; type: in vivo, human; design: blood CEA titer / CEA titer: unit not given here
Protocol: patient two is a person who is refractive to chemotherapy with 5-fluorouracil and leucovorin to reduce their metastases to the liver found at the time of removal of their sigmoid colon cancer. […] Other radiological studies appear to be normal. Immunotherapy with humanized anti-CEA IgG (hMN-15) monoclonal antibody is begun on a weekly basis for 4 weeks, at an intravenous dose of 300 mg/m^2 infused over 2 hours. One week prior to hMN-15 therapy, the patient receives 2 subcutaneous injections of 200 μg/m^2 GM-CSF, 3 days apart, and continued twice weekly during the 4 weeks of hMN-15 therapy. After these four weeks, both hMN-15 and GM-CSF are given at the same doses every other week for an additional 3 months, but the dose of GM-CSF is increased to 250 μg/m^2. Prior to each administration of the humanized anti-CEA antibody, the patient is given diphenhydramine (50 mg orally), and acetaminophen (500 mg orally).

[5] = test system: liver and lung metastases of colon cancer; assay: Combined immunotherapy and chemotherapy of metastatic colon cancer, patient one; type: in vivo, human; design: blood CEA titer: unit not given here
Protocol: patient one is a person presenting with liver and lung metastases of colon cancer following resection of the primary tumor. They are placed on a combined chemotherapy and immunotherapy protocol based on the Gramont schedule (de Gramont et al., J Clin Oncol. 2000, 18:2938-47), but with the addition of humanized anti-CEA monoclonal antibody IgG1 (hMN-15). Prior to infusions of the antibody, they receive 50 mg orally of diphenhydramine and 500 mg orally of acetaminophen. They receive a 2-hr infusion of leucovorin (200 mg/m^2/day) followed by a bolus of 5-fluorouracil (400 mg/m^2/day) and 22-hour continuous infusion of 5-fluorouracil (600 mg/m^2/day) for 2 consecutive days every 2 weeks, together with oxaliplatin at 85 mg/m^2 as a 2-hr infusion in 250 mol of dextrose 5%, concurrent with leukovorin on day 1 (FOLFOX4 schedule). The patient also receives anti-emetic prophylaxis with a 5-hydroxyltryptamine-3-receptor antagonist. One week prior to this 2-week chemotherapy cycle, hMN-15 monoclonal anti-CEA antibody is infused over 2 hrs at a dose of 200 mg/m^2, and repeated each week of the 2-week chemotherapy cycle, and every week thereafter for the next month with another chemotherapy cycle. Also, a subcutaneous dose of 5 μg/kg/day of G-CSF is administered once weekly beginning with the second chemotherapy cycle, and continued at this dose for the duration of immunotherapy with hMN-15 antibody, over the next 3 months.
A total of 5 cycles of chemotherapy is performed with continued administration of hMN-15 antibody and filgrastim. Thereafter, hMN-15 and filgrastim therapy is given, at the same doses, every other week for the next 3 months, without chemotherapy. The patient is staged 2 months later, and their liver and lung metastases show shrinkage by computed tomography measurements of >80 percent of disease measured in the liver and lungs, as compared to the measurements made prior to therapy. […] They are followed over the next 6 months, and their disease appears to be stable, with no new lesions found and no increase in the disease remaining in the liver and lungs. […] The patient also experiences diarrhea, mucositis, nausea and vomiting during the chemotherapy cycles, but these are not excessive.

[6] = hMN-15 with GM-CSF, restaging after another 2 months

## CCc1c2c(nc3ccc(OC(=O)N4CCC(N5CCCCC5)CC4)cc13)-c1cc3c(c(=O)n1C2)COC(=O)[C@]3(O)CC [CPT-11, irinotecan, reference compound]
[1]
  increase of median survival time: 76%

## DLIEEAASRIVDAVIEQVKAAGAY [Ht-31]
[2]
  selectivity / affinity for RII versus RI isoform of PKA: greater affinity for the RII isoform of PKA

## FEELAWKIAKMIWSDVFQQC [PV-38]
[2]
  selectivity / affinity for RII versus RI isoform of PKA: higher affinity for RI

## LEQYANQLADQIIKEATE [RIAD]
[2]
  selectivity / affinity for RII versus RI isoform of PKA: higher affinity for RI

## QIEYVAKQIVDYAIHQA [SuperAKAP-IS]
[2]
  selectivity / affinity for RII versus RI isoform of PKA: five order of magnitude higher selectivity for the RII isoform of PKA compared with the RI isoform

B1: cMN-15: murine MN-15 variable regions (SEQ ID NO:9, SEQ ID NO:10) attached to human IgG1 constant regions (antibody, listed as Mus sp., V domains shown)
VL: DIQLTQSPAIMSASPGEKVTMTCSASSRVSYIHWYQQKSGTSPKRWIYGTSTLASGVPARFSGSGSGTSYSLTISSMEAEDAATYYCQQWSYNPPTFGAGTKLELKR
VH: EVRLVESGGGLVQGPGSLRLSCAASGFALTDYYMSWVRQSPGKTLEWLGFIANKANGHTTDYSPSVKGRFTISRDNSQTILYLQMNTLRTEDSATYYCARDMGIRWNFDVWGQGTTVTVSS
modifications: human IgG1 constant regions
CEA
  affinity for CEA compared with parent murine MN-15: virtually identical
  dissociation constant: nanomolar range

B2: hMN-15: humanized MN-15, VK SEQ ID NO:7 and VH SEQ ID NO:8, REI/KOL frameworks, human IgG1 (antibody, V domains shown)
VH: QVQLVESGGGVVQPGRSLRLSCSSSGFALTDYYMSWVRQAPGKGLEWLGFIANKANGHTTDYSPSVKGRFTISRDNSKNTLFLQMDSLRPEDTGVYFCARDMGIRWNFDVWGQGTPVTVSS
VL: DIQLTQSPSSLSASVGDRVTMTCSASSRVSYIHWYQQKPGKAPKRWIYGTSTLASGVPARFSGSGSGTDFTFTISSLQPEDIATYYCQQWSYNPPTFGQGTKVEIKR
modifications: human IgG1 constant regions
[3]; untreated 0/10
  mice with no palpable tumor: 0/10
[3]; untreated 1.578+0.959
  mean tumor volume: 0.899+0.545 cm^3
[1]
  increase of median survival time: 21%
[4]; hMN-15 300 mg/m^2 with GM-CSF, first restaging
  decrease of sum of the diameters of the measurable tumors in the liver: 40%
[4]; hMN-15 with GM-CSF
  adverse reactions: no adverse reactions to the therapy
[4]; hMN-15 with GM-CSF, first restaging, at presentation 34 ng/mol
  blood CEA titer: 18
[4]; [6]
  CEA titer: 10
  tumor decrease over the pre-therapy baseline: > 65%
CEA
  affinity for CEA compared with parent murine MN-15: virtually identical
  dissociation constant: nanomolar range
[5]; hMN-15 200 mg/m^2 with FOLFOX4 schedule and G-CSF (filgrastim)
  shrinkage of liver and lung metastases by computed tomography: > 80%
[5]; hMN-15 and filgrastim without chemotherapy
  adverse events when only immunotherapy is administered: does not experience any adverse events
[5]; hMN-15 with FOLFOX4 and filgrastim, during chemotherapy cycles
  predominant toxicity: peripheral sensory neuropathy
[5]; hMN-15 with FOLFOX4 and filgrastim, pre-therapy level 63 ng/mol
  blood CEA titer: 9
